{"source": "patent US20110256122A1", "about": "(published 2011)", "binders": {"B1": {"name": "Dom 1h-131-206 (other)", "chain": "EVQLLESGGGLVQPGGSLRLSCAASGFTFAHETMVWVRQAPGKGLEWVSHIPPDGQDPFYADSVKGRFTISRDNSKNTLYLQMNSLRAEDTAVYHCALLPKRGPWFDYWGQGTLVTVSS", "notes": "Immunoglobulin single variable domain (dAb) with specificity for TNF-αR1; also called α-TNF-αR1 dAb; anti TNF alpha R1 dAb"}}, "molecular_target": "T1, recombinant human TNF R1/TNFRSF1A/Fc chimera (R+D Systems) (human, UniProt P19438 30-211)", "T1 construct": "Bought chimera; also called TNF-αR1; TNFR1 Fc; Fc part of the bought chimera not given", "T1 sequence (looked up)": "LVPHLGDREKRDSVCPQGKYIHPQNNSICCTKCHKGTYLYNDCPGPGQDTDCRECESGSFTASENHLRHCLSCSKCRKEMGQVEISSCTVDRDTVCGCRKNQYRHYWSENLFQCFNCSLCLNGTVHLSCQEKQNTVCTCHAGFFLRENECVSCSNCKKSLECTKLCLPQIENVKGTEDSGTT", "assay": "sandwich ELISA, TNF R1 Fc chimera coated on the plate, anti-human IgG F(ab)2 then anti-goat/sheep-HRP detection", "data": [{"binder": "B1", "values": [{"measurement": "binding result", "result": "binds"}]}]}
